Reference: patent US11160869B2 (priority 2019, dated 2021)

Tests used:
[1] = system: colonic marker expression; assay: Colonic sigmoidoscopy spray in NHP: pro-/anti-inflammatory and tissue repair markers; type: in vivo, Macaca fascicularis; conditions: 1, 3, 10 mg
Procedure: To assess the effect of an IL-10 delivery construct on pro-inflammatory and anti-inflammatory markers the IL-10 delivery construct was delivered to male Macaca fascicularis monkeys (about 5 to about 8 kg) by colonic sigmoidoscopy with a spray nozzle. The IL-10 delivery construct was administered at doses of 1 mg, 3 mg, and 10 mg formulated in albumin.

STAT3 = assay: In vivo pSTAT3 induction in lamina propria, immunofluorescence confocal microscopy; parameters: species or system Balb/C mice
Procedure: In vivo studies in mice were performed where the biological activity of human IL-10 following transcytosis was assessed for its ability to stimulate the mouse IL-10 receptor and increase phosphorylation of STAT3 (pSTAT3) in cells within the lamina propria.
An extensive amount of rhIL-10 (SEQ ID NO: 5) was trafficked through enterocytes. Additionally, there were a population of lymphocyte-like cells at the basolateral surface of enterocytes and within the lamina propria that were pSTAT3 positive.
Entire intestines of mice were isolated and processed as a “swiss role” and localization of pSTAT3 was detected by immunofluorescence confocal microscopy (FIG. 110).

[2] = Phase 1a single ascending dose in healthy male volunteers; type: in vivo, human
Procedure: In part B of the study, early data was gathered on the safety and tolerability, pharmacokinetics, pharmacodynamics and early clinical response following multiple ascending doses of the IL-10 delivery construct in Ulcerative Colitis (UC) patients (Part B).
Part A consisted of a single-ascending dose (SAD) escalation in healthy male volunteers. Six cohorts consisting of orally administered single ascending doses were conducted. At each dose level, 6 subjects were enrolled, randomized 2:4 to receive a single dose of placebo or the IL-10 delivery construct on day 1. The doses selected were 1 mg, 3 mg, 10 mg, 30 mg, 60 mg, and 120 mg.

[3] = Evaluation of chromatography modes (CEX, HIC): protein stability; type: physicochemical
Procedure: Several modes of chromatography were evaluated during process development.

plasma cytokines, IL-1Ra = assay: MSD 10-plex proinflammatory panel and plasma IL-1Ra immunoassay, oxazolone dose-response; parameters: species or system mice; conditions: mouse, in vivo
From the text: Plasma cytokines were quantified using the V-plex Proinflammatory Panel 1 Mouse Kit. Plasma IL-1Ra was quantitated by sandwich immunoassay using an antibody pair from the Mouse IL-1Ra/IL-1F3 DuoSet ELISA (R&D Systems #DY480), Streptavidin SULFO-TAG Labeled (MSD #R32AD-1), Multi-Array 96 Plate Pack, SECTOR Plate MSD #L15XA-3 and Read Buffer T (4×) (MSD #R92TC-2). Samples were read on the QuickPlex SQ 120 plate reader (Meso Scale Discovery, Rockville, Md.).

[4] = Single oral capsule dose in NHP: plasma total IL-10; type: in vivo, Macaca fascicularis; conditions: for plasma total IL-10 Tmax: oral
From the text: IL-10 delivery constructs (SEQ ID NO: 5) and caffeine were filled by weight into size-1 Capsugel V-Cap Hydroxypropyl Methylcellulose (HPMC) capsules, for oral administration. The capsules were then successively coated in a pan spray coater with three layers of polymers. The first and third layer were thin coatings of HPMC, the first to seal the crease where the capsule shells come together, and the third to minimize sticking of the capsules to each other. The second coating layer was comprised of a 50:50 mixture of Eudragit® (Evonik Industries AG) enteric acrylic polymers FS 30 D and L 30 D-55, designed to dissolve and allow the capsule to open at pH 6.5.
The MSD Small Spot IL-10 plate was washed 3 times with PBST before use. Standards were prepared in Diluent 2 (MSD Cat No R51BB), and samples diluted 2-fold in Diluent 2. Standards and diluted samples were added to the assay plate and the plate incubated for 2 hours at room temperature with shaking. The plate was washed 3 times with PBST and 1× SULFO TAG anti-huIL-10. Antibody was added to the plate before incubation for 1 hour at room temperature with shaking. Following a wash step, 2×MSD Read buffer was added to the wells of the plate and the plate is read in the MSD Sector Imager 600 plate reader. The lower limit of detection of each analyte is defined as 2.5 standard deviation above background.
IL-10 delivery construct dosing at multiple fixed doses in non-naïve adult male Macaca fascicularis was conducted by Valley Biosystems (West Sacramento, Calif.). […] Dosing groups are described in TABLE 45.
Animals were fasted until after the 3 hour blood sample collection, when food was given. For dosing, the animals were manually restrained and a bite block placed between the jaws. A pill gun containing the dosing capsule was inserted into the back of the oral cavity and the capsule released. Up to 4 capsules were administered consecutively and a small amount of water given to induce swallowing. Once the administration of the dose was confirmed, the bite block was removed and the head released.
Blood samples were collected in K2EDTA tubes from each animal pre-dose and at 0.5, 1, 2, 3, 4, 5, 6, 7, 8, and 24 hours post-dose. Animals were returned to home cages following the 2-hour sample collection. Following physical restraint, blood samples were collected via direct venous puncture using a cephalic, femoral or saphenous vein, which were processed to plasma and stored frozen at −60° C. until shipment.

[5] = system: chemokines, growth factors, cytokines; assay: Luminex 38-plex circulating cytokines, oxazolone colitis (Example 14); type: in vivo, mice
Procedure: Each sample was measured in duplicate.

[6] = Intracolonic spray in NHP: IL-1Ra, pSTAT3, construct and IL-10 in tissue and serum; type: in vivo, cynomolgus monkeys
From the text: This was achieved using a colonoscope with an associated spray nozzle. In this way, refined information for onset and duration of IL-1Ra induction could be obtained at specific local doses. […] The variability of pSTAT3/total STAT3 detected was consistent with tissue capture and stability challenges in this in vivo model. Measurement of tissue delivery construct levels had similar tissue capture and stability challenges, showing low and variable amounts in the tissue samples collected (FIG. 143). […] Since IL-10 can induce cells to produce more IL-10, we also looked for induced IL-10. […] It is important to note, due to the similarity of human and NHP IL-10, that ELISA values shown could also include hIL-10 that has somehow separated from the carrier domain of the delivery construct molecule. While this cannot be ruled out, no other data supports this as an outcome and it appears likely that the majority, if not all, tissue and serum IL-10 measured represents an NHP source.

[7] = system: human peripheral blood mononuclear cells (PBMCs); assay: LPS-induced TNFα, IL-6 and HLA-DR in PBMC monocytes, flow cytometry; conditions: pre-treatment

B1: IL-10 delivery construct: recombinant homodimeric fusion protein: N-terminal methionine, cholix386 domain, polyGlySer spacer, recombinant human IL-10 (protein)
chain: MVEEALNIFDECRSPCSLTPEPGKPIQSKLSIPSDVVLDEGVLYYSMTINDEQNDIKDEDKGESIITIGEFATVRATRHYVNQDAPFGVIHLDITTENGTKTYSYNRKEGEFAINWLVPIGEDSPASIKISVDELDQQRNIIEVPKLYSIDLDNQTLEQWKTQGNVSFSVTRPEHNIAISWPSVSYKAAQKEGSRHKRWAHWHTGLALCWLVPMDAIYNYITQQNCTLGDNWFGGSYETVAGTPKVITVKQGIEQKPVEQRIHFSKGNAMSALAAHRVCGVPLETLARSRKPRDLTDDLSCAYQAQNIVSLFVATRILFSHLDSVFTLNLDEQEPEVAERLSDLRRINENNPGMVTQVLTVARQIYNDYVTHHPGLTPEQTSAGAQAGGGGSGGGGSGGGGSPGQGTQSENSCTHFPGNLPNMLRDLRDAFSRVKTFFQMKDQLDNLLLKESLLEDFKGYLGCQALSEMIQFYLEEVMPQAENQDPDIKAHVNSLGENLKTLRLRLRRCHRFLPCENKSKAVEQVKNAFNKLQEKGIYKAMSEFDIFINYIEAYMTMKIRN
modifications: homodimer
**Q.** With B1 as the molecule, how does the “expression of anti-inflammatory markers” value [1] read?
**A.** Its value is “increased expression of anti-inflammatory markers”.

**Q.** What about the “expression of pro-inflammatory markers” value [1] of the same molecule?
**A.** The value was “decreased expression of pro-inflammatory markers”.

**Q.** And the “expression of tissue repair and wound healing biomarkers” value [1]?
**A.** Its value is “increased expression of biomarkers associated with tissue repair and wound healing”.

**Q.** What about the “phosphorylation of STAT3 in cells within the lamina propria” value (STAT3; intraluminal injection into jejunum) of the same molecule?
**A.** The value was “increased phosphorylation of STAT3”.

**Q.** And the “IL-10 activity (pSTAT3) along the intestine” value (STAT3; oral gavage)?
**A.** Its value is “demonstrated along the length of intestine”.

**Q.** What about the “IL-1Ra induction at high doses” value ([2]; 60 and 120 mg) of the same molecule?
**A.** The value was “loss of immunomodulatory activity”.

**Q.** And the drug in blood ([2]; all doses (1-120 mg))?
**A.** Its drug in blood is “no drug was detected in the blood”.

**Q.** And the “adverse events in 24 active subjects” value ([2]; all mild, self-limiting)?
**A.** Its value is 2.

**Q.** What about the IL-1Ra expression ([2]; single dose) of the same molecule?
**A.** The IL-1Ra expression was “able to induce IL-1Ra expression”.

**Q.** What about the safety and tolerability ([2]; single oral doses 1-120 mg) of the same molecule?
**A.** Its safety and tolerability is “safe and well tolerated”.

**Q.** What about the “behaviour at relatively low pH (cation exchange)” value [3] of the same molecule?
**A.** The value was “precipitate at a pH below the pI of the target construct (pH 5.5)”.

**Q.** And the “behaviour in high salt (hydrophobic interaction chromatography)” value [3]?
**A.** The value was “unstable in the high salt”.

**Q.** And the “plasma cytokines, MSD 10-plex, vs Vehicle” value (plasma cytokines, IL-1Ra)?
**A.** The value was “no significant differences”.

**Q.** What about the “plasma total IL-10 Tmax” value ([4]; 1 mg) of the same molecule?
**A.** Its value is 4 h.

**Q.** What about the “plasma total IL-10 Tmax” value ([4]; 4 mg) of the same molecule?
**A.** The value was 3 h.

**Q.** And the “plasma total IL-10 Tmax” value ([4]; 20.5 mg)?
**A.** Its value is 2 h.

**Q.** What about the “plasma total IL-10 Tmax” value ([4]; 82 mg) of the same molecule?
**A.** The value was 2 h.

**Q.** And the “time at which plasma total IL-10 had returned to baseline” value ([4]; all doses)?
**A.** The value was 6 hours post-dose.

**Q.** What about the “increased serum levels of MCSF, IL12 p70, IL-3” value ([5]; 8.45 mg/kg) of the same molecule?
**A.** Its value is “Treatment-mediated suppression”.

**Q.** What about the “reduction of plasma IL-23 compared with Vehicle” value ([5]; 8.45 mg/kg prophylactic) of the same molecule?
**A.** The value was 73%.

**Q.** And the “reduction of plasma IL-6 compared with Vehicle” value ([5]; 8.45 mg/kg prophylactic, Luminex)?
**A.** The value was 33%.

**Q.** And the “serum levels of IL-10” value [6]?
**A.** Its value is “increased in a dose-dependent manner”.

**Q.** And the “serum levels of the delivery construct” value ([6]; 1, 3, or 10 mg colonic spray)?
**A.** Its value is “below the assay detection limit”.

**Q.** And the “time to reach the lamina propria following luminal application” value ([6]; cynomolgus monkey, in vivo)?
**A.** Its value is roughly 15 min.

**Q.** And the “tissue IL-10 levels” value ([6]; within 15 min after spray)?
**A.** Its value is “dose-dependent and transient increases”.

**Q.** What about the “LPS-induced secreted TNFα” value [7] of the same molecule?
**A.** The value was “dose-dependent reduction”.

**Q.** And the “LPS-induced surface expression of HLA-DR” value [7]?
**A.** The value was “dose-dependent reduction”.
